# According to patent US20230265199A1:
# Substitutions are numbered along the chain they refer to. Numbers in names are those of the source.
# B1: Trap Z (Human, "full" extracellular domain NRP1-His, VEGF165-Low, E319K/D320K mutations) (receptor)
# chain: FRNDKCGDTIKIESPGYLTSPGYPHSYHPSEKCEWLIQAPDPYQRIMINFNPHFDLEDRDCKYDYVEVFDGENENGHFRGKFCGKIAPPPVVSSGPFLFIKFVSDYETHGAGFSIRYELFKRGPECSQNYTTPSGVIKSPGFPEKYPNSLECTYIVFAPKMSEIILEFESFDLEPDSNPPGGMFCRYDRLEIWDGFPDVGPHIGRYCGQKTPGRIRSSSGILSMVFYTDSAIAKEGFSANYSVLQSSVSEDFKCMEALGMESGEIHSDQITASSQYSTNWSAERSRLNYPENGWTPGKKSYREWIQVDLGLLRFVTAVGTQGAISKETKKKYYVKTYKIDVSSNGEDWITIKEGNKPVLFQGNTNPTDVVVAVFPKPLITRFVRIKPATWETGISMRFEVYGCKITDYPCSGMLGMVSGLISDSQITSSNQGDRNWMPENIRLVTSRSGWALPPAPHSYINEWLQIDLGEEKIVRGIIIQGGKHRENKVFMRKFKIGYSNNGSDWKMIMDDSKRKAKSFEGNNNYDTPELRTFPALSTRFIRIYPERATHGGLGLRMELLGCEVEAPTAGPTTPNGNLVDECDDDQANCHSGTGDDFQLTGGTTVLATEKPTVIDSTIQSEFPTYGFNCEFGWGSHKTFCHWEHDNHVQLKWSVLTSKTGPIQDHTGDGNFIYSQADENQKGKVARLVSPVVYSQNSAHCMTFWYHMSGSHVGTLRVKLRYQKPEEYDQLVWMAIGHQGDHWKEGRVLLHKSLKLYQVIFEGEIGKGNLGGIAVDDISINNHISQEDCAKPADLDKKNPEIKIDETGSTPGYEGEGEGDKNISRKPGNVLKTLDPRSGSKENLYFQGHHHHHH
# B2: Trap AC (Human, "full" extracellular domain NRP1-His-VEGF-low, D320K mutation) (receptor)
# chain: B1 chain with K298E
# B3: Trap M (Human, NRP1-His-Δb2c-short) (receptor)
# chain: FRNDKCGDTIKIESPGYLTSPGYPHSYHPSEKCEWLIQAPDPYQRIMINFNPHFDLEDRDCKYDYVEVFDGENENGHFRGKFCGKIAPPPVVSSGPFLFIKFVSDYETHGAGFSIRYELFKRGPECSQNYTTPSGVIKSPGFPEKYPNSLECTYIVFAPKMSEIILEFESFDLEPDSNPPGGMFCRYDRLEIWDGFPDVGPHIGRYCGQKTPGRIRSSSGILSMVFYTDSAIAKEGFSANYSVLQSSVSEDFKCMEALGMESGEIHSDQITASSQYSTNWSAERSRLNYPENGWTPGEDSYREWIQVDLGLLRFVTAVGTQGAISKETKKKYYVKTYKIDVSSNGEDWITIKEGNKPVLFQGNTNPTDVVVAVFPKPLITRFVRIKPATWETGISMRFEVYGCRSGSKENLYFQGHHHHHH
# B4: Trap R (Human, NRP1-His-Δc-VEGF low) (receptor)
# chain: B1 chain with Y276A, K298E, K299D
# Molecular target: Recombinant human SEMA3A Fc chimera (R&D Systems) (human) (UniProt Q14563)
# Experiment: plate saturation binding; trap coated, SEMA3A-FC titrated, HRP anti-human IgG chemiluminescence, non-linear fit
row,Molecule,Kd [nM]
1,"Trap G (Human, ""full"" extracellular domain NRP1-His) (from UniProt O14786 22-856) (receptor)",0.8
2,"Trap O (Human, NRP1-His-Δc-short) (from UniProt O14786 22-583) (receptor)",1.05
3,B1,4.44
4,B2,4
5,B3,0.95
6,B4,6.15
